Assay [1] has as its target plasma-derived coagulation Factor IXa (human) (UniProt P00740). The assay is described as follows: cell-based or functional assay.
The target is the same in assay [2]. The experiment in a line: FXa generation assay; FIXa stimulation by the one-armed antibody at eight concentrations, fitted with the quadratic binding equation.

Numbering of substitutions follows the chain as printed.

UniProt P00740, sequence (P00740 47-191, chain 1 of 2): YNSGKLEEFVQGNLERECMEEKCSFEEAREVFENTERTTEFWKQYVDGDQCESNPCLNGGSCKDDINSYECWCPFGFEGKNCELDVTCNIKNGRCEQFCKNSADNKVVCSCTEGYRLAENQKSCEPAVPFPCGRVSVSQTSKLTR
UniProt P00740, sequence (P00740 227-461, chain 2 of 2): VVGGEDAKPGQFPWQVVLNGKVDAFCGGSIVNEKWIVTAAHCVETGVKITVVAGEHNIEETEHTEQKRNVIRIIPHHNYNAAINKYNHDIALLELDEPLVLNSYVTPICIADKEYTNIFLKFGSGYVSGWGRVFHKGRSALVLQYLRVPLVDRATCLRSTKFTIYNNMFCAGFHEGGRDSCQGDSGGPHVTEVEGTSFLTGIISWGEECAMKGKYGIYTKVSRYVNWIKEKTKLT

On to “monovalent one-armed (OA) version of the anti-FIXa antibody of emicizumab (ACE910)”, for which the Stimulation Index (FXa generation assay; estimated at full FIXa saturation) in assay [1] is 1370 fold. For the same molecule, the Kd in assay [2] stood at 1.1 µM.

B1: monovalent one-armed (OA) antibody of anti-FIX(a) mAb1 (antibody, V domains shown, part only)
VH: EVQLVESGGGLVQPGRSLRLSCAASGFTFHDYAMHWVRQVPGKGLEWVSGISWRGDIGGYVKSVKGRFTISRDNAKNSLYLQMNSLRAEDTALYYCVKSYGSGSFYNAFDSWGQGTLVTVSS
VL: DIQMTQSPSTLSASVGDRVTITCRASQSISSWLAWYQQKPGKAPKFLIYKGSKADRGTPSRFSGSGSGTEFTLTISSLQPDDFATYYCLEYESYIRTFGQGTKVEIK
modifications: constant regions and truncated heavy chain not given
In assay [1], B1 registered a Stimulation Index (FXa generation assay; 1599 nM OA antibody) of 9840 fold.

B2: monovalent one-armed (OA) antibody of anti-FIX(a) mAb7 (antibody, V domains shown, part only)
VH: B1 VH
VL: B1 VL with R18E, G51A, S52E, A54L
modifications: constant regions and truncated heavy chain not given
With B2, in assay [1], the Stimulation Index (FXa generation assay; 851 nM OA antibody) came out at 8730 fold.

B3: monovalent one-armed (OA) antibody of anti-FIX(a) mAb4 (antibody, V domains shown, part only)
VH: B1 VH
VL: B1 VL with G51S, S52E, A54L
modifications: constant regions and truncated heavy chain not given
Regarding B3, in assay [1], the Stimulation Index (FXa generation assay; 1217 nM OA antibody) was 10500 fold.

B4: monovalent one-armed (OA) antibody of anti-FIX(a) mAb2 (antibody, V domains shown, part only)
VH: B1 VH
VL: B1 VL with A54Q, E92S
modifications: constant regions and truncated heavy chain not given
As for B4, in assay [1], the Stimulation Index (FXa generation assay; 5640 nM OA antibody) is 14200 fold.

B5: monovalent one-armed (OA) antibody of anti-FIX(a) mAb8 (antibody, V domains shown, part only)
VH: B1 VH
VL: B1 VL with G51A, S52E, A54L
modifications: constant regions and truncated heavy chain not given
In the case of B5, in assay [1], the Stimulation Index (FXa generation assay; 1276 nM OA antibody) came out at 10100 fold.

B6: monovalent one-armed (OA) antibody of anti-FIX(a) mAb6 (antibody, V domains shown, part only)
VH: B1 VH
VL: B1 VL with R18E, A54L, E92S
modifications: constant regions and truncated heavy chain not given
Take B6: the Stimulation Index (FXa generation assay; 3547 nM OA antibody) in assay [1] came to 13500 fold.

B7: monovalent one-armed (OA) antibody of anti-FIX(a) mAb5 (antibody, V domains shown, part only)
VH: B1 VH
VL: B1 VL with R18E, S52E, A54L, E92S
modifications: constant regions and truncated heavy chain not given
In assay [1], B7 gave a Stimulation Index (FXa generation assay; 1463 nM OA antibody) of 11200 fold.

B8: monovalent one-armed (OA) antibody of anti-FIX(a) mAb3 (antibody, V domains shown, part only)
VH: B1 VH
VL: B1 VL with A54T
modifications: constant regions and truncated heavy chain not given
In turn, B8 gave a Stimulation Index (FXa generation assay; 749 nM OA antibody) in assay [1] of 8650 fold.

Source of the values: patent publication US20250376538A1.
